Key:
[1] = molecular target: human TSHR on transfected CHO cells (human, UniProt P16473 22-764); test: cell-based or functional assay
TSHR260 = molecular target: T1, TSHR260 (human, UniProt P16473 22-260); test: Scatchard analysis, TSHR260 coated tubes (mean±SD, n=3)
T1 construct: Expressed in insect cells; coated on tubes or wells by way of a mouse TSHR MAb (14C4 F(ab')2 in the stability ELISA); also called TSHR fragment of amino acids 22-260

[2] = molecular target: T2, full length human TSHR, detergent-solubilised, coated on tubes or ELISA plate wells (human, UniProt P16473 22-764); test: inhibition of 125I-TSH binding to TSHR coated tubes, dilutions in HBD sera
T2 construct: Full length receptor expressed in CHO cells, solubilised with detergent and held on the plastic by a mouse MAb to the C-terminus; The leader 1-21 is stated for the TSHR260 construct of the same receptor; also called TSH receptor; TSHR (full length)

[3] = molecular target: T2, full length human TSHR, …; test: inhibition of 125I-TSH binding to TSHR coated tubes, dilutions in assay buffer
Method: Binding inhibition assays were carried out using TSHR coated tubes as described in WO2004/050708A2. […] After aspiration, the tubes were washed and 100 μL of ¹²⁵I-labelled protein (5×10⁴ cpm) added and incubated for 1 hour at room temperature with shaking. The tubes were then aspirated, washed and counted in a gamma counter. Inhibition of labelled protein binding was calculated as 100×[1−(cpm bound in the presence of test material/cpm bound in the presence of control material)].

[4] = molecular target: T2, full length human TSHR, …; test: Scatchard analysis, 125I-labelled antibody on full length TSHR coated tubes (mean±SD, n=3)

B1: K1-18 IgG (antibody, V domains shown)
VH: EVQLVQSGAEVKKPGESLKISCKGSGYSFTNYWIGWVRQMPGKGLEWMGIIYPYDSDTRYSPSFEGQVTISADKSIRTAYLHWSSLKASDTAMYYCVRPRDGSYPYDAFDIWGQGTMVTVSS
VL: EIVLTQSPGTLSLSPGERATLSCRASQSVSNNYLAWYQQKPGQAPRLLIYGASSRATGIPDRFSGSGSGTDFTLTISRLEPEDFAVYYCQHCGSSLRAFGQGTKVEIKR
notes: Human IgG1 kappa purified from hetero-hybridoma supernatant; also called human MAb K1-18
potency of TSHR cyclic AMP stimulation, M22 against K1-18 [1]: ~1.5 fold | Ka (TSHR260): 5.9e+09 M⁻¹ | fold activity in inhibition of TSH binding against K1 donor serum IgG [2]: 6600 times | fold activity in inhibition of TSH binding against K1 donor serum IgG [3]: 4700 times | Ka [4]: 6.7e+09 M⁻¹
